Results as given in US20230280343A1.

Experiments:
[1] = target: p300 (UniProt Q09472); test: ELISA, total binding fit, average of three independent trials (FIG. 21)
[2] = target: p300 (UniProt Q09472); test: ELISA; ratio of Kd against native HIF1α

Sequence of p300 (Q09472 323-423 limits assumed): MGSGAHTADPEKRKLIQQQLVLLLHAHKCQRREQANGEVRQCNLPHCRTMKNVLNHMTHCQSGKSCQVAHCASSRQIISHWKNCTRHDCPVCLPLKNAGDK

| Binder | Kd [1] [nM] | fold improvement over native HIF1α [2] [fold] |
| --- | --- | --- |
| HIF1α-MAP-2 (H-MAP-2) (designed binder) MRGSPKKKRKVGGGGSHHHHHHHHGSACELAATATATATATATAACGDLAPQMLRELQETNAALQDVRELLRQQVKEITFLKNTLLEIWKAAKEAAKEAAAKIEEQAKTFLDKFNGEELLRALDQVN | 0.0382 |  |
| HIF1α-MAP-1 (H-MAP-1) (designed binder) MRGSHHHHHHGSACELAATATATATATATAACGDLAPQMLRELQETNAALQDVRELLRQQVKEITFLKNTLLEIWKAAKEAAKEAAAKIEEQAKTFLDKFNGEELLRALDQVN | 0.00808 | 47 |
